Patent US20250195629A1, “SITE-SPECIFIC BRAIN THERAPEUTICS” (William Marsh Rice University, priority 2023, published 2025)
Read-outs that look alike come from different tables or passages of the source.

B1: AADC-IKVAV: aromatic-L-amino-acid decarboxylase (AADC) protein fused with short peptide IKVAV (SEQ ID NO: 23); CDS SEQ ID NO: 21 (protein)
chain: MRGSHHHHHHGMASMTGGQQMGRDLYDDDDKDPMNASEFRRRGKEMVDYMANYMEGIEGRQVYPDVEPGYLRPLIPAAAPQEPDTFEDIINDVEKIIMPGVTHWHSPYFFAYFPTASSYPAMLADMLCGAIGCIGFSWAASPACTELETVMMDWLGKMLELPKAFLNEKAGEGGGVIQGSASEATLVALLAARTKVIHRLQAASPELTQAAIMEKLVAYSSDQAHSSVERAGLIGGVKLKAIPSDGNFAMRASALQEALERDKAAGLIPFFMVATLGTTTCCSFDNLLEVGPICNKEDIWLHVDAAYAGSAFICPEFRHLLNGVEFADSFNFNPHKWLLVNFDCSAMWVKKRTDLTGAFRLDPTYLKHSHQDSGLITDYRHWQIPLGRRFRSLKMWFVFRMYGVKGLQAYIRKHVQLSHEFESLVRQDPRFEICVEVILGLVCFRLKGSNKVNEALLQRINSAKKIHLVPCHLRDKFVLRFAICSRTVESAHVQRAWEHIKELAADVLRAEREGGSGSSGGSGGSGGSGIKVAV
modifications: misc_feature 1..1602 Synthetic: AADC-IKVAV

Experiments:
[1] = tested on: dopamine receptor D1+ or D2+ expressing cells in the CPu; assay type: in vivo, mouse
Description: c-Fos activation with engineered AADC—Three groups of mice underwent FUS-BBBO procedure to target a single site at left striatum immediately after intravenous injection of recombinant protein AADC-IKVAV (SEQ ID NO: 23) (20 mg/mL, 250 mg/kg) or equivalent volume of PBS buffer (n=5 mice for FUS alone+L-DOPA group). After 48 h, the mice were given a single dose of L-DOPA (0.1 mg/mL, 2 mg/kg, i.p.; Spectrum Chemical) 10 min after injection of carbidopa (1 mg/mL, 25 mg/kg, i.p.; Sigma-Aldrich), both of which were dissolved in sterile saline containing 2.5 and 0.125 mg/mL ascorbic acid. […] After 2 hours, the mice were euthanized by transcardial perfusion, and their brains were extracted and sliced into 50 μm coronal sections following 24-48 hours of fixation.
The section displaying the strongest AADC fluorescence was selected as the representative for each mouse, and its adjacent section was stained separately to identify c-Fos and dopamine receptor D1 and D2 positive cells. The procedure was carried out as follows: (1) block sections in 10% normal goat serum (SouthernBiotech) and 0.3% Triton-X solution in PBS for 1 h at room temperature; (2) incubate with primary rabbit anti-c-Fos (1:2000, 2250S, Cell Signaling Technology) antibody in PBS with 0.3% Triton-X for 2 h at room temperature; (3) after washing three times in PBS (15 min each, the same as below), incubate with primary rat anti-D1 Dopamine Receptor (1:500, D2944, MilliporeSigma) and Guinea pig anti-Dopamine Receptor D2 (1:500, Cat. #376 205, Synaptic Systems) antibodies in 5% normal goat serum and 0.3% Triton-X solution in PBS overnight at 4° C.; (4) after washing three times, incubate with secondary goat anti-rabbit antibody conjugated to Alexa Fluor 647 (1:500, A-21245, ThermoFisher) in PBS with 0.3% Triton-X for 2 h at room temperature; (5) after washing three times, incubate with secondary goat anti-rat antibody conjugated to Alexa Fluor 546 (1:500, A-11081, ThermoFisher) and goat anti-Guinea Pig antibody conjugated to Alexa Fluor 488 (1:500, A-11073, ThermoFisher) in 5% normal goat serum and 0.3% Triton-X solution in PBS for 2 h at room temperature; (6) after washing three times, mount sections onto glass slides using the mounting media (Vector Laboratories) with DAPI and air-dry overnight in dark before imaging.
Within the left striatum region, a specific 5×9 binned rectangle area was selected corresponding to the highest observed AADC fluorescence in the adjacent AADC-stained section. Subsequently, images were captured of these areas using a 40× objective. The corresponding contralateral areas in the right striatum were also imaged.
In FIG. 7, we applied the following brightness (white) thresholds for the corresponding channels: 6045 (DAPI, nuclei, not shown), 15,000 (Cy3, D1R), 16,000 (green, D2R), and 6045 (far-red, c-Fos), with a gamma value of 1. In FIG. 11, we applied a Brightness (White) threshold of 6045 for both DAPI (nuclei, not shown) and far-red (c-Fos) channels, with a Gamma value of 1. The images were then overlayed, and the c-Fos+ cells were manually counted. Similarly, the GFAP+ cells were manually counted, as shown in FIG. 15c and FIG. 17, by applying a Brightness (White) threshold of 5686 and a Gamma value of 1 for both the DAPI (nuclei) and far-red (GFAP, purple) channels.
To manually count the c-Fos-positive cells in FIG. 7, three scorers (Z. H., S. N., and R. J.) independently assessed all c-Fos staining sites. R. J. served as the blinded scorer, and the averaged counts from all three scorers were rounded for the final statistical analysis.

[2] = tested on: brain tissue; test: Safety analysis, hematoxylin staining of brain sections; assay type: in vivo, mouse; conditions: RAID approach, FUS+AADC-IKVAV+L-DOPA, behavior study
Description: Additionally, the brain sections stained for GFAP were imaged using a 4× objective in DAPI (nuclei) and far-red (GFAP) channels. Three square areas were then selected in both the left and right striatum respectively, each with 3×3 binning, for imaging with a 40× objective to quantify GFAP+ cells. Safety analysis—To investigate potential lesions resulting from the use of FUS-BBBO in the RAID protocol, hematoxylin staining was performed (n=11 mice for FUS alone+L-DOPA group and n=14 mice for FUS+AADC-IKVAV (SEQ ID NO: 23)+L-DOPA group) on the adjacent sections of each representative section used for c-Fos staining, which was associated with behavior analysis as shown in FIG. 11. Hematoxylin staining was conducted according to the following steps: […] (5) This was followed by a 3-minute wash in H2O; (6) A 20-second soak in Bluing Reagent (H&E Staining Kit, Abcam ab245880) was carried out; (7) Another 3-minute wash in H2O followed; […]

Molecule	c-Fos+ cells expressing D1+ or D2+, FUS-targeted region vs contralateral site ([1]; FUS alone + L-DOPA 2 mg/kg i.p., no enzyme)	c-Fos+ cells with no expression of D1+ or D2+ in vicinity of CPu, FUS-targeted vs contralateral ([1]; FUS-BBBO only without AADC-IKVAV (FUS alone+L-DOPA))	tissue damage or bleeding by hematoxylin staining [2]	c-Fos+ cells expressing D1+ or D2+, FUS-targeted region vs contralateral site ([1]; FUS+AADC-IKVAV 250 mg/kg i.v., L-DOPA 2 mg/kg i.p. after 48 h, perfused 2 h later)	c-Fos+ cells with no expression of D1+ or D2+ in vicinity of CPu, FUS-targeted vs contralateral ([1]; FUS+AADC-IKVAV alone)	c-Fos+ cells expressing D1+ or D2+, FUS-targeted region vs contralateral site ([1]; FUS+AADC-IKVAV without L-DOPA)	c-Fos+ cells with no expression of D1+ or D2+ in vicinity of CPu, FUS-targeted vs contralateral ([1]; FUS+AADC-IKVAV+L-DOPA)
N[C@@H](Cc1ccc(O)c(O)c1)C(=O)O [L-DOPA, reference compound]	No significant change	no significant changes	–	–	–	–	–
B1	–	–	didn't cause observable tissue damage or bleeding	6.6 (±1.7) fold	no statistically significant changes	No significant change	no statistically significant changes
